Experimental data as given in the DeepSol protein solubility set.

experiment: soluble on expression in E. coli; label from the status in PepcDB or PDB records

Sequence | soluble on expression in E. coli
MKVAVLDFGKTNSKLFVFGQDGGILDERRTQPKWTHQDGFSVLDEAALHDWALGAVTEAVENHGVEGVMVSGHGCTFALVDDAALTHPILDYEQEPPAEIAARIDHRIPDFAETFSPRLPLGFNYGRHMLWVQEVDPDAFAAAKSILGYPQYWSWRLGGRPVSEVSYLGCHSHLWAPRSQDFSSLVDAEGWRGQMPAFARAGAVIGERRLGSSSRPIAIHNGVHDSNAALHAYRRQELGPLTVVSTGTWVVVLNPGCPLDVLDRDRDMLVNVDVDGGPVPTIRFMGGREFAAISAGWQGAIPPGAVQQAIDAGIMALPSFAPGGPMPDRPGRLVGRTPYAAERAAAALLYVALMVDLCLDLIQSQDTVIVDGGLNAGGLLAGLLAELRPGQAFLQGATLEGSATGAAALAFESVGRDFVAEAPEPVHAARFAGLAGYRDAWRDRVGGQGTAIKAAGGARLEHHHHHH | not soluble
MARRQTSSNGAGETRENLLRLAARIFSAQGYSGTTMRSIAQQAGIETASIYYHFPSKEDLVDEVMEIGATAIIQHMTERIEALGDGATAEERFRAAVLGQMAGMVKHGEYTLASSSLIEQLPEKVRERQSKRRESYQKLWAGLLEDLRAEGRLRSDVDLHLARMFILGSVQSIRYWFNPRKGSLEKVAAQLCDLFFEGVGQRG | soluble
MAHHHHHHMNTFFLSRFRGGTFFLQKYEKIWNRAKGYHTYNYIFQNNKNIINHKKKNRNLFLYEKRNFYTSNDGKKYTKKFWNHLGFVIIPQETAYIVERLGKYNKTLLAGIHFLIPFIDKIAYVFSLKEETITIPNQTAITKDNVTLNIDGVLYIKCDNPYNSSYAIEDAVFAVTQLAQVTMRSELGKLTLDATFLERDNLNEKLVKAINESAKNWGIKCMRYEIRDIILPVNIKNAMEKQAEAERRKRAEILQSEGERESEINIAIGKKRKSILIAEGQSFAIKAKADATAEAIEIISNKIKKLDSNNAISLLVAEQYIDVFSNICKNNNTVIIPADLNNISSLISQSLSIYNNIQNSKKENNQIHTLPIQKQIHSDMNN | not soluble
MALNFLSYDDDFCGYCGAILELPAQAPATVSCKVCSTRWAVKERVDQVVSRVEKIYERTVADTDGIENDESADAVVDHICTKCGHSKASYSTMQTRSADEGQTVFYTCLKCKKKDIEYS | not soluble
MGSWSEKAFSASKLDDAIAAKFGSLPIQESTAIQIKAPEIAENGAFVPVTVATSIPGATNISIFTPANFSPMVASFDVLPRMKPEVSLRMRMAKTENLVVVVQAGGKLYRAVREVKVTIGGCGG | soluble
KILLEPTKVSFWGILRTPFMEQFGNGITPFSVGGQPMQILGLRQAGVSLGEGSSVSLMK | not soluble
MGSSHHHHHHSSGLVPRGSHMRGVIRKLNDDGFGVLKGILVPFSAPGDEIIVERVERVKKRRVASQWKLVRSSPLRVGPRCKAFGKCGGCTLQHLNYDYQLEFKRKKLKRILGFEVEVVPSPKIFGHRNRIDLAITKDGIGFRERGKWWKIVDIDECPVFGKTSREAIERLKEFIEEEKISVWNIKKDEGFLRYMVLREGKFTEEVMVNFVTKEGNLPDPTNYFDFDSIYWSVNRSKSDVSYGDIERFWGKEFIRERLDDVDYLIHPNSFFQTNSYQAVNLVRKVSELVEGEKILDMYSGVGTFGIYLAKRGFNVKGFDSNEFAIEMARRNVEINNVDAEFEVASDREVSVKGFDTVIVDPPRAGLHPRLVKRLNREKPGVIVYVSCNPETFARDVKMLDYRIDEIVALDMFPHTPHVELVAKLV | soluble
MARQSSSLKSFIYKDECYFYSKKCIKTLRLRLNEKGEFVLSIPYFCTFKSVYEFLDKSSSWMNEAKKRFEKKVLKDDELIFLAKKYKIIFDENTKKTYFDKDKIICQNKAKLDLFLRQNAKKIFTFYLKKWSQKTGLFYTHLSIKNMKTRWGSCNHNKAYVNLNLKLIQKSLRAIEYVILHEISHLKFPNHSKEFYTFIEHFMSDFRQREKEFLSLEHHHHHH | soluble
MGHHHHHHSHMASVSSATFSGHGARSLLQFLRLVGQLKRVPRTGWVYRNVQRPESVSDHMYRMAVMAMVIKDDRLNKDPEAMKQITQLLPEDLRKELYELWEEYETQSSAEAKFVKQLDQCEMILQASEYEDLEHKPGRLQDFYDSTAGKFNHPEIVQLVSELEAERSTNIAAAASEPHS | soluble
